To fix the notation:
B1: Zinc finger protein ZIC 2, residues 250 to 295; numbered along this chain, O95409 (parent)
chain: QCIKQELICKWIDPEQLSNPKKSCNKTFSTMHELVTHVSVEHVGGP

± gives the uncertainty stated by the source.

Variants of B1 are the subject of the data set. The data set is described as follows: abundance fitness (aPCA) (normalised: wild type 0, dead -1); higher = more abundant; growth selection in yeast, the domain comes from the species named. To be noted: Homo sapiens.
QCIKQELIQKWIDPEQLSNPKKSCNKTFSTMHELVTHVSVEHVGGP: the abundance fitness is -0.675 ± 0.12. With QCIKQELIFKWIDPEQLSNPKKSCNKTFSTMHELVTHVSVEHVGGP, the abundance fitness is -0.975 ± 0.14. With QCIKQELIEKWIDPEQLSNPKKSCNKTFSTMHELVTHVSVEHVGGP the figure was -0.578 ± 0.11; with QCIKQELIIKWIDPEQLSNPKKSCNKTFSTMHELVTHVSVEHVGGP, -0.96 ± 0.13; with QCIKQELIGKWIDPEQLSNPKKSCNKTFSTMHELVTHVSVEHVGGP, -0.714 ± 0.085. In the case of QCIKQELIVKWIDPEQLSNPKKSCNKTFSTMHELVTHVSVEHVGGP, the abundance fitness was -0.841 ± 0.093.

On to QCIKQELIAKWIDPEQLSNPKKSCNKTFSTMHELVTHVSVEHVGGP, for which the abundance fitness was -0.651 ± 0.091. In the case of QCIKQELISKWIDPEQLSNPKKSCNKTFSTMHELVTHVSVEHVGGP, the abundance fitness is -0.78 ± 0.095. Consider QCIKQELIMKWIDPEQLSNPKKSCNKTFSTMHELVTHVSVEHVGGP, for which the abundance fitness is -0.822 ± 0.12. For QCIKQELIHKWIDPEQLSNPKKSCNKTFSTMHELVTHVSVEHVGGP, the abundance fitness is -1.03 ± 0.17. Regarding QCIKQELIPKWIDPEQLSNPKKSCNKTFSTMHELVTHVSVEHVGGP, the abundance fitness was -0.776 ± 0.11. Turning to QCIKQELIKKWIDPEQLSNPKKSCNKTFSTMHELVTHVSVEHVGGP, the abundance fitness was -0.473 ± 0.11. Consider QCIKQELIWKWIDPEQLSNPKKSCNKTFSTMHELVTHVSVEHVGGP, for which the abundance fitness was -1.03 ± 0.11. As to QCIKQELILKWIDPEQLSNPKKSCNKTFSTMHELVTHVSVEHVGGP, the abundance fitness was -0.863 ± 0.098. Consider QCIKQELIDKWIDPEQLSNPKKSCNKTFSTMHELVTHVSVEHVGGP, for which the abundance fitness was -0.758 ± 0.11. Next, QCIKQELIYKWIDPEQLSNPKKSCNKTFSTMHELVTHVSVEHVGGP: -0.829 ± 0.098; QCIKQELICKDIDPEQLSNPKKSCNKTFSTMHELVTHVSVEHVGGP: -0.647 ± 0.15; QCIKQELICKLIDPEQLSNPKKSCNKTFSTMHELVTHVSVEHVGGP: -0.079 ± 0.089. Next, QCIKQELICKVIDPEQLSNPKKSCNKTFSTMHELVTHVSVEHVGGP: -0.115 ± 0.095; QCIKQELICKNIDPEQLSNPKKSCNKTFSTMHELVTHVSVEHVGGP: -0.216 ± 0.13; QCIKQELICKQIDPEQLSNPKKSCNKTFSTMHELVTHVSVEHVGGP: 0.241 ± 0.11. With QCIKQELICKMIDPEQLSNPKKSCNKTFSTMHELVTHVSVEHVGGP the figure was -0.146 ± 0.1; with QCIKQELICKEIDPEQLSNPKKSCNKTFSTMHELVTHVSVEHVGGP, 0.117 ± 0.11; with QCIKQELICKTIDPEQLSNPKKSCNKTFSTMHELVTHVSVEHVGGP, -0.413 ± 0.11. Turning to QCIKQELICKHIDPEQLSNPKKSCNKTFSTMHELVTHVSVEHVGGP, the abundance fitness was 0.002 ± 0.12. For QCIKQELICKGIDPEQLSNPKKSCNKTFSTMHELVTHVSVEHVGGP, the abundance fitness was -0.089 ± 0.086. For the variant QCIKQELICKPIDPEQLSNPKKSCNKTFSTMHELVTHVSVEHVGGP, the abundance fitness is -0.348 ± 0.1. In the case of QCIKQELICKRIDPEQLSNPKKSCNKTFSTMHELVTHVSVEHVGGP, the abundance fitness is 0.037 ± 0.085.

With QCIKQELICKKIDPEQLSNPKKSCNKTFSTMHELVTHVSVEHVGGP, the abundance fitness worked out at 0.216 ± 0.1.

Turning to QCIKQELICKCIDPEQLSNPKKSCNKTFSTMHELVTHVSVEHVGGP, the abundance fitness was -0.712 ± 0.1.

On to QCIKQELICKAIDPEQLSNPKKSCNKTFSTMHELVTHVSVEHVGGP, for which the abundance fitness is -0.223 ± 0.099. Consider QCIKQELICKYIDPEQLSNPKKSCNKTFSTMHELVTHVSVEHVGGP, for which the abundance fitness was determined as 0.005 ± 0.11.

With QCIKQELICKSIDPEQLSNPKKSCNKTFSTMHELVTHVSVEHVGGP, the abundance fitness is -0.212 ± 0.089.

With QCIKQELICKFIDPEQLSNPKKSCNKTFSTMHELVTHVSVEHVGGP, the abundance fitness worked out at 0.187 ± 0.1.

With QCIKQELICAWIDPEQLSNPKKSCNKTFSTMHELVTHVSVEHVGGP, the abundance fitness is -0.193 ± 0.087.

With QCIKQELICQWIDPEQLSNPKKSCNKTFSTMHELVTHVSVEHVGGP, the abundance fitness amounted to 0.205 ± 0.1. With QCIKQELICTWIDPEQLSNPKKSCNKTFSTMHELVTHVSVEHVGGP, the abundance fitness worked out at 0.33 ± 0.098. Consider QCIKQELICEWIDPEQLSNPKKSCNKTFSTMHELVTHVSVEHVGGP, for which the abundance fitness was 0.157 ± 0.093. For the variant QCIKQELICGWIDPEQLSNPKKSCNKTFSTMHELVTHVSVEHVGGP, the abundance fitness is -0.138 ± 0.085. Consider QCIKQELICPWIDPEQLSNPKKSCNKTFSTMHELVTHVSVEHVGGP, for which the abundance fitness was -0.45 ± 0.11. Turning to QCIKQELICWWIDPEQLSNPKKSCNKTFSTMHELVTHVSVEHVGGP, the abundance fitness was -0.277 ± 0.1. Next, QCIKQELICNWIDPEQLSNPKKSCNKTFSTMHELVTHVSVEHVGGP: 0.394 ± 0.12; QCIKQELICLWIDPEQLSNPKKSCNKTFSTMHELVTHVSVEHVGGP: -0.248 ± 0.091; QCIKQELICDWIDPEQLSNPKKSCNKTFSTMHELVTHVSVEHVGGP: 0.018 ± 0.1.

Consider QCIKQELICCWIDPEQLSNPKKSCNKTFSTMHELVTHVSVEHVGGP, for which the abundance fitness was -0.19 ± 0.11. As to QCIKQELICIWIDPEQLSNPKKSCNKTFSTMHELVTHVSVEHVGGP, the abundance fitness was -0.484 ± 0.15. As for QCIKQELICFWIDPEQLSNPKKSCNKTFSTMHELVTHVSVEHVGGP, the abundance fitness was -0.506 ± 0.14. Turning to QCIKQELICYWIDPEQLSNPKKSCNKTFSTMHELVTHVSVEHVGGP, the abundance fitness is 0.165 ± 0.13.

With QCIKQELICVWIDPEQLSNPKKSCNKTFSTMHELVTHVSVEHVGGP, the abundance fitness was -0.4 ± 0.088.

QCIKQELICHWIDPEQLSNPKKSCNKTFSTMHELVTHVSVEHVGGP: the abundance fitness was 0.236 ± 0.11. Consider QCIKQELICKWRDPEQLSNPKKSCNKTFSTMHELVTHVSVEHVGGP, for which the abundance fitness was -0.228 ± 0.086. With QCIKQELICKWCDPEQLSNPKKSCNKTFSTMHELVTHVSVEHVGGP, the abundance fitness turned out to be 0.013 ± 0.1.

Take QCIKQELICKWFDPEQLSNPKKSCNKTFSTMHELVTHVSVEHVGGP: the abundance fitness was -0.179 ± 0.11. Next, QCIKQELICKWGDPEQLSNPKKSCNKTFSTMHELVTHVSVEHVGGP: -0.278 ± 0.086.

Consider QCIKQELICKWQDPEQLSNPKKSCNKTFSTMHELVTHVSVEHVGGP, for which the abundance fitness was -0.144 ± 0.11. Regarding QCIKQELICKWMDPEQLSNPKKSCNKTFSTMHELVTHVSVEHVGGP, the abundance fitness was -0.077 ± 0.11.

The values are drawn from the Human Domainome abundance scans (Beltran et al. 2025).
